Test results as given in the supplement of paper PMC10724198.
± gives the standard deviation of the averaged measurements.

What was measured:
Saccharomyces cerevisiae [1] = assay: protein stability index of tFT-peptide fusion (C-terminal peptide) (PSI (0-1 scale)); higher = more stable (slower turnover)
Experimental: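 MPS profiling in S. cerevisiae of the tFT-X12 degron library: putative degron peptides plus stable controls, 12 aa, fused to the C-terminus of a sfGFP-mCherry timer. Cells are FACS-sorted into 8 mCherry/sfGFP bins and deep-sequenced. PSI runs from 0 (unstable) to 1 (stable). Backgrounds are wild type, das1Δ and doa10Δ at 30 °C, and wild type, das1Δ, cdc34-1 and cdc53-1 at 37 °C; 2-3 technical replicates each.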

Saccharomyces cerevisiae [2] = assay: as above; conditions: genetic background: wild type; temperature: 30 C
[3] = genetic background: cdc34-1, temperature: 37 C
[4] = genetic background: cdc53-1, temperature: 37 C
[5] = genetic background: das1 deletion, temperature: 30 C
[6] = genetic background: das1 deletion, temperature: 37 C
[7] = genetic background: doa10 deletion, temperature: 30 C
[8] = genetic background: wild type, temperature: 30 C
[9] = genetic background: wild type, temperature: 37 C
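Also: PSI is a weighted mean of sequencing reads over stability bins, variants kept only with over 10 reads, mCherry proximal and sfGFP distal, peptide attached via GGGS linker.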

Row | Sequence | protein stability index (Saccharomyces cerevisiae [1]; [3]) | protein stability index (Saccharomyces cerevisiae [1]; [4]) | protein stability index (Saccharomyces cerevisiae [1]; [5]) | protein stability index (Saccharomyces cerevisiae [1]; [6]) | protein stability index (Saccharomyces cerevisiae [1]; [7]) | protein stability index (Saccharomyces cerevisiae [1]; [8]) | protein stability index (Saccharomyces cerevisiae [1]; [9]) | protein stability index (Saccharomyces cerevisiae [2])
1 | IKKKKRKKIKAN | 0.634 ± 0.048 | 0.728 ± 0.019 | 0.65 ± 0.024 | 0.751 ± 0.015 | 0.199 ± 0.013 | 0.211 ± 0.017 | 0.291 ± 0.021 | 0.244 ± 0.043
2 | CFYVGFLGYFVF | 0.447 ± 0.026 | 0.556 ± 0.005 | 0.357 ± 0.04 | 0.55 ± 0.027 | 0.342 ± 0.0064 | 0.367 ± 0.011 | 0.505 ± 0.014 | 0.42 ± 0.0044
3 | FVSSLLPLLTLL | 0.555 ± 0.032 | 0.636 ± 0.013 | 0.608 ± 0.032 | 0.694 ± 0.014 | 0.142 ± 0.0036 | 0.141 ± 0.012 | 0.218 ± 0.0057 | 0.293 ± 0.033
4 | GRSVGVTMFKNG | 0.614 ± 0.059 | 0.7332 ± 0.0067 | 0.627 ± 0.017 | 0.73 ± 0.018 | 0.172 ± 0.019 | 0.206 ± 0.014 | 0.479 ± 0.016 | 0.3421 ± 0.0014
5 | SGLPLVILFLCL | 0.529 ± 0.0086 | 0.635 ± 0.04 | 0.435 ± 0.028 | 0.625 ± 0.022 | 0.441 ± 0.026 | 0.436 ± 0.019 | 0.576 ± 0.038 | 0.476 ± 0.0088
6 | YLDRFIFIYNIF | 0.603 ± 0.034 | 0.6848 ± 0.0062 | 0.599 ± 0.048 | 0.707 ± 0.031 | 0.189 ± 0.0069 | 0.202 ± 0.017 | 0.367 ± 0.023 | 0.26 ± 0.025
7 | TFVGWIVWLCGS | 0.537 ± 0.026 | 0.621 ± 0.0073 | 0.487 ± 0.033 | 0.6164 ± 0.0052 | 0.216 ± 0.0069 | 0.258 ± 0.022 | 0.456 ± 0.0097 | 0.331 ± 0.018
8 | CFLLSYRWVFLC | 0.0855 ± 0.0055 | 0.0678 ± 0.0095 | 0.177 ± 0.033 | 0.2381 ± 0.0016 | 0.0531 ± 0.0053 | 0.0411 ± 0.018 | 0.0605 ± 0.03 | 0.0949 ± 0.027
9 | VCQVCVCFLFWR | 0.0977 ± 0.0034 | 0.0539 ± 0.0021 | 0.145 ± 0.032 | 0.181 ± 0.0077 | 0.27 ± 0.018 | 0.139 ± 0.016 | 0.169 ± 0.017 | 0.228 ± 0.043
